In US20230146939A1, “TREATMENT FOR HUMAN CORONAVIRUS INFECTION” (THE ADMINISTRATORS OF THE TULANE EDUCATIONAL FUND, priority 2020, published 2023) one finds most effective dose tested data, which are given here for one molecule.

In the assay the target is α5β1 integrin, P08648. Description: competition ELISA, α5β1-coated plate, inhibition of trimeric spike binding. In general terms: An ELISA detects its analyte on a solid surface through an enzyme-linked reagent.
Chain of α5β1 integrin, P08648 (P08648 42-995, chain 1 of 2): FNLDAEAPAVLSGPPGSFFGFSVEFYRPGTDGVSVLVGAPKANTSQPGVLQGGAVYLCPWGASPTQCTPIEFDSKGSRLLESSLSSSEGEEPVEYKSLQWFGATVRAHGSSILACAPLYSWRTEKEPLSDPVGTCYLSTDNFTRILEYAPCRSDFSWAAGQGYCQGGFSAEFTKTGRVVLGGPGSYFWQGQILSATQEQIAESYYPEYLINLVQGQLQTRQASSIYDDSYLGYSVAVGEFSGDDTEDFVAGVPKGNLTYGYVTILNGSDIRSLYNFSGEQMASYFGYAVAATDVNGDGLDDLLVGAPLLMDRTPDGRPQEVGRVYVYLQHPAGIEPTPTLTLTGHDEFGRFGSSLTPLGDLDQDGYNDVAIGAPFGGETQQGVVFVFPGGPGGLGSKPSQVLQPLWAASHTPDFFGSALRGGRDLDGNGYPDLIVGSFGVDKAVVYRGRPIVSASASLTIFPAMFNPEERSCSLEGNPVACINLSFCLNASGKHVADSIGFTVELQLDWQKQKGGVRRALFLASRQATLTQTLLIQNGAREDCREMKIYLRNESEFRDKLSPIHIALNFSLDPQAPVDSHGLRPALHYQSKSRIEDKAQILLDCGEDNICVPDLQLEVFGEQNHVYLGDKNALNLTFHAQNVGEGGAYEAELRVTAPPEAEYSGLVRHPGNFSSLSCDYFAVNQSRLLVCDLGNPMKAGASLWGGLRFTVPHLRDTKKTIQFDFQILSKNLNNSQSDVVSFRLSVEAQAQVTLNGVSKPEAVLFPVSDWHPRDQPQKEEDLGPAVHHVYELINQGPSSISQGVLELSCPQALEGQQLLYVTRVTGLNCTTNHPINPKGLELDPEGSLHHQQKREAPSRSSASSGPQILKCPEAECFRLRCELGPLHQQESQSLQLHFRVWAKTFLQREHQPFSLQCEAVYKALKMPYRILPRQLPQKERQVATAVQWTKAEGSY
Chain of α5β1 integrin, P08648 (P05556 21-728, chain 2 of 2, further chain): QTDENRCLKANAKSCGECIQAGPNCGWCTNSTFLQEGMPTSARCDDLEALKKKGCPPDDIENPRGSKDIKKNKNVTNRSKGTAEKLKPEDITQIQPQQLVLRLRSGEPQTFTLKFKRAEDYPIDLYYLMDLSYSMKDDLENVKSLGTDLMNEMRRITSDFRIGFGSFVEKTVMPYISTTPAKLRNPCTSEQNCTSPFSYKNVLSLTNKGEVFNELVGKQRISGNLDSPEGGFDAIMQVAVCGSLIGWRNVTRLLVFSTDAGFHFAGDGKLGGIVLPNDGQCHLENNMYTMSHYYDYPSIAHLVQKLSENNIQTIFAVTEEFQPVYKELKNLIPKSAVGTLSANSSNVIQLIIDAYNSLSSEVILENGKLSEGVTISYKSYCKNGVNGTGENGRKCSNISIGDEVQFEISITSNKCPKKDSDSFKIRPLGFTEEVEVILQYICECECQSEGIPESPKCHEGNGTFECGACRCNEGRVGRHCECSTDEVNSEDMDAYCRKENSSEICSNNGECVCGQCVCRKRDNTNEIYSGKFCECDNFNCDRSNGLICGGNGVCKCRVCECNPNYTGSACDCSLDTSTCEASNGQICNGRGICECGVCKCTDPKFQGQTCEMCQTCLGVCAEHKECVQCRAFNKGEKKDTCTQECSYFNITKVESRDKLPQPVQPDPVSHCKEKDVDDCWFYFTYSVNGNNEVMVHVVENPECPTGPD

B1: ATN-161 (peptide)
peptide: PHSCN
modifications: not checked
In turn, B1 had a most effective dose tested of 100 nM.
